The results in this text go back to patent publication US20210308211A1, “METHOD OF TREATING VIRAL INFECTIONS” (priority 2020, published 2021).

Non-standard residues stand in square brackets, D forms with d. Residues, ends and D or L forms follow the SMILES beside them. No end group written: not given here. Met(O) = CS(=O)CC[C@H](N)C(=O)O; pS = N[C@@H](COP(=O)(O)O)C(=O)O

Assay [1] relates to MRL/lpr mice. In words: Survival analysis in MRL/lpr lupus mice. In kind it is in vivo, mouse. The note with it: female MRL/lpr mice, intravenous, 20 mice per group; NaCl control 25 weeks. The procedure: It has been determined that this mouse strain carries a mutation in the fas gene. Also, the MRL/lpr is a useful model to study behavioural and cognitive deficits found in autoimmune diseases and the efficacy of immunosuppressive agents [Monneaux et al., 2003, Eur. J. Immunol. 33, 287-296].
Five-week-old female MRL/lpr mice received P140 or peptide P140(MO) intravenously as described (Monneaux et al., 2003, Eur. J. Immunol. 33, 287-296). All experimental protocols were carried out with the approval of the local Institutional Animal Care and Use Committee (CREMEAS). As control, mice were injected with NaCl.
Twenty mice were used for each peptide or NaCl.
Statistical tests were performed using GraphPad Prism version 5.0. The two-way ANOVA test was used to analyze statistical significance of proteinuria differences between control and peptide-treated groups of mice. Survival of control and P140 analogue-treated female MRL/lpr mice was analyzed by the Kaplan-Meier method, and the significance of differences was determined by the log-rank test. For the other variables, statistical significance was assessed using the Student's t-test. p values less than 0.05 were considered significant.

Assay [2] relates to MRL/lpr mice. In words: Proteinuria analysis in MRL/lpr mice (Albustix). In kind it is in vivo, mouse. As to conditions: compared to the untreated mice. As to the method: Proteinuria of the above mice was measured in fresh urine using Albustix (Bayer Diagnostics) and was semi-quantitatively estimated according to a […] recommended by the manufacturer (no proteinuria=0; traces=1; 1+=2; 2+=3; 3+=4; 4+=5).

Assay [3] has as its system MRL/lpr mice. In words: Cellularity analysis of peripheral blood in MRL/lpr mice. As to conditions: 100 μg/100 μL single injection, 5 days after. The assay is classed as in vivo, mouse. As to the method: MRL/lpr mice were injected with 100 μg/100 μL of P140 or P140(MO) and cellularity (preipheral blood) was studied 5 days after this unique injection. The count includes all the leucocytes. In view of the low number of tested mice, a non parametric statistical test has been realised Mann-Whitney).

In a further assay the target is T1, HSC70 protein (Bos taurus, UniProt P19120).
T1 construct: purchased Stressgen
T1 sequence (P19120 whole entry): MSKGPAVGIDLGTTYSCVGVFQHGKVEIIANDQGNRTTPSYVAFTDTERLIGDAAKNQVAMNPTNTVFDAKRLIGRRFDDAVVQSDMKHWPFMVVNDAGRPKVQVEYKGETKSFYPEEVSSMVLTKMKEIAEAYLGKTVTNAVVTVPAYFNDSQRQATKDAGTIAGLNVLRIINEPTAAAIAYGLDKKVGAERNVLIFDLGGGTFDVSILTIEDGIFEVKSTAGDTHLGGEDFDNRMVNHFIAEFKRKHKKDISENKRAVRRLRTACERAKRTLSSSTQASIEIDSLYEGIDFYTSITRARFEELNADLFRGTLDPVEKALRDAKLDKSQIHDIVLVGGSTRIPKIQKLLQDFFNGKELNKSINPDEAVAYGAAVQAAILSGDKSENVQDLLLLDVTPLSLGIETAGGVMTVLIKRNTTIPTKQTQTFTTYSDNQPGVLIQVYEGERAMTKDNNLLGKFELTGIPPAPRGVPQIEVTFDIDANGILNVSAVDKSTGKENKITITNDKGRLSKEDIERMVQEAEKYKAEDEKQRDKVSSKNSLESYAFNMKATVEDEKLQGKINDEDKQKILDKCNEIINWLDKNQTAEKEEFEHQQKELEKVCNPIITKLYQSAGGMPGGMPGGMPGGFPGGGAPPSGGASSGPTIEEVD
In words: BIAcore binding of peptides to immobilized HSC70. On the set-up: species or system bovine. As to the method: BIAcore 3000 system (Biacore AB) was used to evaluate the binding of P140 peptides to HSC70 protein (Page et al., 2009, and 2011). Sensor chip CM5, surfactant P20, amine coupling kit containing N-hydroxysuccinimide (NHS) and N-ethyl-N′-dimethylaminopropyl carbodiimide (EDC), 2-(2-pyridinyldithio)ethaneamine (PDEA) and ethanolamine were from Biacore AB. Biosensor assays were performed with HBS-EP buffer as running buffer (10 mM HEPES, 150 mM NaCl, 3 mM EDTA, 0.005% surfactant P20, pH 7.4). The compounds were diluted in the running buffer. The sensor chip surface was regenerated after each experiment by injecting 10 μL of 10 mM HCl. Recombinant bovine HSC70 (Stressgen) was immobilized on flow cells of a CM5 sensor chip through its thiol groups using 35 μL PDEA in 50 mM borate buffer, pH 8.3 on the NHS/EDC-activated matrix. Then, 35 μL of HSC70 (100 μg/mL in formate buffer, pH 4.3) were injected until a response of 13,000 response units (RU) corresponding to 13 ng/mm^2 of HSC70 was immobilized. Twenty μL of a 50 mM cysteine/1 M NaCl solution was used to saturate unoccupied sites on the chip. The direct binding measurement of P140 peptides to HSC70 was carried out at 25° C. with a constant flow rate of 20 μL/min. P140 peptide and analogues were injected in the flux at different concentrations for 3 min, followed by a dissociation phase of 3 min. The kinetic parameters were calculated using the BIAeval 3.1 software on a personal computer. Analysis was performed using the simple 1:1 Langmuir binding model. The specific binding profiles were obtained after subtracting the response signal from the control empty channel and from blank-buffer injection. The fitting to each model was judged by the χ^2 value and randomness of residue distribution compared to the theoretical model.
Background: Surface plasmon resonance follows binding to a sensor surface in real time, without labels.

Assay [4] addresses Recombinant bovine HSC70 (Stressgen) (bovine) (UniProt P19120). Nature of the assay: SPR, BIAcore 3000; HSC70 immobilised, peptide injected at 25 µM; 1:1 Langmuir fit.
Assay [5] shares this target. Nature of the assay: SPR, BIAcore 3000; HSC70 immobilised, peptide injected at 12.5 µM; 1:1 Langmuir fit.
Assay [6] has the same target. Nature of the assay: SPR, BIAcore 3000; HSC70 immobilised, peptide injected at 3.12 µM; 1:1 Langmuir fit.
The target is the same in assay [7]. In words: SPR, BIAcore 3000; HSC70 immobilised, peptide injected at 6.25 µM; 1:1 Langmuir fit.
Assay [8] shares this target. Nature of the assay: SPR, BIAcore 3000; HSC70 immobilised, peptide injected at 1.56 µM; 1:1 Langmuir fit.
Assay [9] shares this target. In words: SPR, BIAcore 3000; HSC70 immobilised, peptide injected; 1:1 Langmuir fit; row for analyte at 25 µM.
For assay [10] the target is unchanged. Nature of the assay: SPR, BIAcore 3000; HSC70 immobilised, peptide injected; 1:1 Langmuir fit; row for analyte at 1.56 µM.
The target is the same in assay [11]. In words: SPR, BIAcore 3000; HSC70 immobilised, peptide injected; 1:1 Langmuir fit; row for analyte at 12.5 µM.
For assay [12] the target is unchanged. In words: SPR, BIAcore 3000; HSC70 immobilised, peptide injected; 1:1 Langmuir fit; row for analyte at 3.12 µM.
Assay [13] shares this target. In words: SPR, BIAcore 3000; HSC70 immobilised, peptide injected; 1:1 Langmuir fit; row for analyte at 6.25 µM.

Sequence of Recombinant bovine HSC70 (Stressgen) (bovine) (P19120 whole entry): as above

For the molecule `CC[C@H](C)[C@H](NC(=O)[C@H](Cc1ccccc1)NC(=O)[C@H](C)NC(=O)[C@H](Cc1ccc(O)cc1)NC(=O)CNC(=O)[C@H](CCCNC(=N)N)NC(=O)[C@@H]1CCCN1C(=O)[C@H](CCCCN)NC(=O)CNC(=O)[C@H](COP(=O)(O)O)NC(=O)[C@H](CCCNC(=N)N)NC(=O)[C@H](CCCCN)NC(=O)[C@H](CO)NC(=O)[C@H](Cc1ccc(O)cc1)NC(=O)[C@@H](NC(=O)[C@H](CC[S+](C)[O-])NC(=O)[C@H](Cc1c[nH]cn1)NC(=O)[C@@H](NC(=O)[C@@H](N)CCCNC(=N)N)[C@@H](C)CC)C(C)C)C(=O)N[C@@H](CCC(=O)O)C(=O)N[C@@H](Cc1ccc(O)cc1)C(=O)O` (stereo partly drawn) [P140(MO), RIHM(O)VYSKRS(PO3H2)GKPRGYAFIEY] (H-RIH[Met(O)]VYSKR[pS]GKPRGYAFIEY-OH), in the assay on MRL/lpr mice [1], the Median survival is listed as greater than 40 weeks. Also, in the assay with MRL/lpr mice [2], the Proteinuria entry was “less important and appears lately”. Moreover, the Peripheral hypercellularity result with MRL/lpr mice [3] is “decrease peripheral hypercellularity”. Besides, the “Rmax (RU)” value on HSC70 protein (25° C., 1:1 Langmuir model) is on record as 39 RU. For the same molecule, on HSC70 protein (25° C., 1:1 Langmuir model, analyte 1.56-25 μM, read-out: ka), the kon is 1150 M⁻¹ s⁻¹. Besides, on HSC70 protein (P140 compared with P140 M(O)), the “Affinity for HSC70, oxidized vs non-oxidized peptide (in words)” value is given as “not statistically different”. For the same molecule, the “Req (RU)” value was found to be 17.6 RU at HSC70 protein (peptide 1.56 μM); 24.2 RU on HSC70 protein (peptide 3.12 μM); 29.9 RU on HSC70 protein (peptide 6.25 μM); 33.9 RU on HSC70 protein (peptide 12.5 μM); 36.3 RU at HSC70 protein (peptide 25 μM). In addition, the “kobs” value at HSC70 protein (peptide 12.5 μM) was found to be 0.0166 s⁻¹; on HSC70 protein (peptide 25 μM), 0.031 s⁻¹.
One may read the Kd as the equilibrium constant for the complex coming apart. In general, koff refers to the first-order rate constant of dissociation. Take RIHMVYSKR[pS]GKPRGYAFIEY [P140 peptide (SEQ ID NO: 1 in which serine at position 10 is phosphorylated; SEQ ID NO: 4)]: the Req in assay [4] worked out at 65.2 RU; in [5] it was 53.6 RU; in assay [6], 25.8 RU; in assay [7] it was 39.5 RU; in assay [8] it was 15.3 RU. For the same molecule, the kobs amounted to 0.0144 s⁻¹ in assay [4]; 0.00874 s⁻¹ in assay [5]; 0.00452 s⁻¹ in assay [6]; 0.00593 s⁻¹ in assay [7]; 0.00382 s⁻¹ in assay [8]. Moreover, the Ka in assay [9], in assay [10], in assay [11], in [12] and in [13] was 144000 M⁻¹ in each case. The Kd in assay [9], in assay [10], in assay [11], in assay [12] and in assay [13] was 6.94 µM each time. Moreover, the off-rate constant (koff) in assay [9], in assay [10], in assay [11], in assay [12] and in assay [13] was 0.00312 s⁻¹ in each case.
As for RIH[Met(O)]VYSKR[pS]GKPRGYAFIEY, the Req in [4] amounted to 36.3 RU; in [5], 33.9 RU; in assay [6], 24.2 RU; in assay [7], 29.9 RU; in [8], 17.6 RU. Moreover, the kobs is 0.031 s⁻¹ in [4]; 0.0166 s⁻¹ in assay [5]; 0.0058 s⁻¹ in assay [6]; 0.0094 s⁻¹ in assay [7]; 0.004 s⁻¹ in [8]. The Ka in assay [9], in assay [10], in assay [11], in [12] and in assay [13] was 524000 M⁻¹ throughout. Also, the dissociation constant Kd in assay [9], in assay [10], in [11], in assay [12] and in assay [13] was 1.91 µM each time. Further, the off-rate constant (koff) in assay [9], in assay [10], in [11], in assay [12] and in [13] was 0.0022 s⁻¹ in each case.
